The nature of this data set: soluble on expression in E. coli; label from the status in PepcDB or PDB records.
Turning to “MKLKKIVFTLIALGLFSCKTTSVLVKNEPQLKTPKNVILLISDGAGLSQISSTFYFKSGTPNYTQFKNIGLIKTSSSREDVTDSASGATAFSCGIKTYNAAIGVADDSTAVKSIVEIAALNNIKTGVVATSSITDATPASFYAHALNRGLEEEIAMDMTESDLDFFAGGGLNYFTKRKDKKDVLAILKGNQFTINTTALTDFSSIASNRKMGFLLADEAMPTMEKGRGNFLSAATDLAIQFLSKDNSAFFIMSEGSQIDWGGHANNASYLISEINDFDDAIGTALAFAKKDGNTLVIVTSDHETGGFTLAAKKNKREDGSEYSDYTEIGPTFSTGGHSATLIPVFAYGPGSEEFIGIYENNEIFHKILKVTKWNQ”, the “soluble on expression in E. coli” value was “soluble”.

“MKLLLLIFVPFVTCGLTCMDFMIDCPRIVYYCDETYVQNQCQFSCGICKQDPGVCGDTYFDCDMYDTKCNSPSFQRQCAGTCGLCPGACEDIWDGCSHFLAPCSDDIKSLCPIKCGLCNSTTTPMILTTITPVDPRCVDAGNQCANYSPPCSDDVKIFCPATCGSCSNGTTGVPLVLTTLTPELTTVTVEPITSTLKPTTTTITPTTTTKLPTTTTKKLPPTTPKPPCKDSSPNCAGWAKNGFCTNTFYPPEKRKEYCGKTCRMC”: the “soluble on expression in E. coli” value is listed as “not soluble”. Consider “MKLNNHNLKEIYSLSLNELKEELFKLGLKSFISKQIYSWIYQKRIFNFDKFSNIAKNNVIILKENFSNNLLKINSYQSNSDGSIKFEFLTDKNLIINCMIIKFKNGFLIKINPFGINFKKEIINLSTNELVLQILLIQQFLDQRKLGNITNVIIKGLQDSLLNMDVVSNFINIINNENGLNIGKRKIAVWTSGINVDLIKWGQLQNQIELIISMNASNSLIYQKIMLKKLNQNWSFLKLIEQIKAYTKITNNRVVLEYLLIDKINDDLNYANELVELLKNILCYVLLIPYNLNNYRTSANLDDFFNILSVNKIRISKRIRKSNDLDISFKQLKIKELEHHHHHH”, for which the “soluble on expression in E. coli” value was “not soluble”. With “MKLPAPPVLLFLCGMFSLPMALADSGIQLDTPKGGWRTRAMDGEQYIQEVNYPASSVNTPQGQADTARIRGQIKGAPKANKEPGKLIVNGVSMPLKFDEQGSFDRPYAFPNGSNSVEVRSPDGQQRQRVQFLNTGGGVTPPKLRVLLSWDSDNTDLDLHLVTPDGAHIWYGDRVAPNGATLDVDVTTGYGPEIFSMPAPLKGQYLVYVNYYGGGYRSDDDEDGGQENAVQPLTTAQVTVITEEGTPDEKSETFVVPMRAPGELTLVRSFSYPLEHHHHHH” the entry was “not soluble”. Next, “MKLPISTISPIHYIKSVVSSRETRSESNKSRRTFANTEWNKIIRETLYLETIYIPLDATSHSPDIIFQLQSPVEPKVLTVGVACKGRWKSEGIGWSDIIDEAKKFLDPLYDQVLSSAMDYHHCMLIIVSTKLSLNVSNELGN”: “not soluble”. As for “MKLSEYGLQLQEKQKLRHMYGVNERQFRKTFEEAGKMPGKHGENFMILLESRLDNLVYRLGLARTRRQARQLVTHGHILVDGSRVNIPSYRVKPGQTIAVREKSRNLQVIKEALEANNYIPDYLSFDPEKMEGTYTRLPERSELPAEINEALIVEFYSR”, the “soluble on expression in E. coli” value was “soluble”. For the sequence “MKLSFSLPPKSKSRVSLNSDRKDCIGAGNLKQFVTEFDPSETLTDSKPKYVIPPIEDRRRSYRSIDLPLPSASGLQFEAEIPSGDGSDNNITYGLNLRQKVENVEKPEPVEKMLLKSMRTDLESLPDAPEKEDFESFPVDGFGEALLAGYGWKPGQGIGLKAKEDVKIVEYEKWSGNEGFGFGKSDKAMKMIDNKLVGSGSHEEVKVGINKIENMEKDRVVRKRNRETEGESRTEVKACKQNYRGQTRETREKTSWLRSHIKVRIISKDVKGGRLYLKKAVVTDVVGPTSCDIAMDETQELVQGIDQELLETALPRRGGSVLVLSGRHKGVYGRLVEKDLDKETGVVCDADSQEMLHVKLDQVAEYIGDPADIGY”, the “soluble on expression in E. coli” value is given as “soluble”.

With “MKLSKRQEQIIAVVKEHQPVSGERISDILAVSRATLRSDLSFLTLSGILKASPKVGYTYESDNMEAFFFFDVFQTKVQEIMSPPLMVAQDTSIRDAITNLFMYDVGSLYVMDEAKELLGVLSRKDLLRASLNTNIDGTPVAVCMTRVPHVKTCTPEFTILEAADTLQKYEVDSLPVVEKENPKKVIGKITKTKILTYITQQAKEAAQNR”, the “soluble on expression in E. coli” value is given as “not soluble”.

As to “MKLTDRLLKIASLVSDGKKIADIGTDHGYIPVYLLKEGKVPFAVLADVNKGPLDNAHKEVIQNNLLDKVDLRLGSGIEILEIGEVEEVIIAGMGGILISELLEAKKEVAHNVEKLILQPMQAQEELRYYLLNNGYEILEEVLVREDFRIYEIIVAKYTGKNTIIEDEIYYEVGIKLLENKDSLFNDFIEKKIKTYSSIVNKLEGKNGEAIDKKRKESEVAIKKLENLIK”, the “soluble on expression in E. coli” value is on record as “not soluble”. With “MKLVTISGPPSSGKTAVLAGVIRAMMASGLKVGALKYDCLATNDDDVFRAIGVPVQTGLSGNLCPDHYFVSNIEECLDWGIREGFDFLLSESAGLCNRCAPHIKGVLAVCVIDNLMGATTPKKIGPMLKYADIVVITKGDIVSQAEREVFAFQVRRANPRAKIMHVNGITGQGAGELASQFLLAPETTCLDGSRLRFSMPAALCSYCLGETRIGMEFQLGNVKKIKMSEEPARLEHHHHHH” the entry was “soluble”.

In the case of “MKNEDGIINILLMGTDARPNEDSSRSDAMMILTIDNKHNDIKLTSLARDSYVDIPGHGKQKLTHAYAYGQADLLIQTIEENFNIDIQNYACVNFESFMYIIDAIGGVEVTVEKGEIRELNKFIPETYKWNKSDDKGSIQYIRNSGKQTLNGYQALSFARIRHNDTAFARDGRQRQIIQAIIKKTETLPVTKYPGLLDAVLPYVKTNMKPNAILSLGAQVLKMGDLNIKQFEFPIDDEIHSTGGIYGKAGWVLRFDPDTLDILHDFIFNDIEFKQLEHHHHHH”, the “soluble on expression in E. coli” value is “soluble”. “MKNEELDFDITVFDEGKADLKAAAIYNVPFFPKGAKADEIYTHIKAQIASMLEVKYIDSKVVSISGEKGDFTVNDEQGLGIKADYIIVATGANKSDIKELEDFVIPHELMPKPNKFCFKHHGRQIIKEGIYAAGLASGVTTMVACAMGSANEAACAILSDIKGAVSVYHDTPLEHHHHHH”: the “soluble on expression in E. coli” value is on record as “not soluble”.

Regarding “MKNIGVNINSCKDPDGTIRKYVEKVIKEEKKDVQVKFYDELNYFDEVCKTKPDFFIAFGGDGTILNAARNLVSCGIPIFSVNIGHLGFLSSIEFKDFKDAIHKIFKGEYFFQERTMLKCSFIKGNSKKVFYSLNEVVLYKGNMAKILKYNIDVDDKFYMGFKSDGIIISTPTGSTAYNLSAGGPIIYPNLDLISLTPICPQGPYAGTIVLDGKSNITISGIDANENVFITVDGRQPVDVKGVSFIEISKLNYKCKLLKLKDYNYFEVLRKKIILRTEECEGDKYMAGDPLEHHHHHH”, the “soluble on expression in E. coli” value is given as “soluble”. With “MKNKAFGQIMDDAENPGFFKILRSADLSSEIMRGIPLNFIKSISEEELSAKMLLKVSWGSSWPIKICRNPSFYFMEKKGWDQFLSDNGLGNDEFLTFTHQGNMCFTVDIYQIDGKELLTPRRSATIASSSGRNKREQRNNIYKDVKEEEDIESWSESSYPGHKTAESTGRRQRLSLSNKKAKETEKSKKKKMKVESISYDSQDDSLSLVPEFTLTIKKSYLIFLGIPKMFEELHMPTEATMFKIHDPEGKRSWDVMYKFSNNQTRFCAGWIRLAKELGLEIGDVCTFTLIKPTEMLVRVSK” the entry was “soluble”; with “MKNSKAILQVPGTMKIISAEIPVPKEDEVLIKVEYVGICGSDVHGFESGPFIPPKDPNQEIGLGHECAGTVVAVGSRVRKFKPGDRVNIEPGVPCGHCRYCLEGKYNICPDVDFMATQPNYRGALTHYLCHPESFTYKLPDNMDTMEGALVEPAAVGMHAAMLADVKPGKKIIILGAGCIGLMTLQACKCLGATEIAVVDVLEKRLAMAEQLGATVVINGAKEDTIARCQQFTEDMGADIVFETAGSAVTVKQAPYLVMRGGKIMIVGTVPGDSAINFLKINREVTIQTVFRYANRYPVTIEAISSGRFDVKSMVTHIYDYRDVQQAFEESVNNKRDIIKGVIKISD”, “soluble”; with “MKNSLCNSVSSVVKKLLEYGEDGTPVYVNELTALNQELRNLCADLLLQKGESPEEEAEILVTLFKGYDTMLFNFSSENEQVIQELLDRSMTVLEKLPASVLKCQLLLECFEQTGDEELIREAKKNIERVI”, “soluble”. As for “MKNVGFIGWRGMVGSVLMQRMVEERDFDAIRPVFFSTSQLGQAAPSFGGTTGTLQDAFDLEALKALDIIVTCQGGDYTNEIYPKLRESGWQGYWIDAASSLRMKDDAIIILDPVNQDVITDGLNNGIRTFVGGNCTVSLMLMSLGGLFANDLVDWVSVATYQAASGGGARHMRELLTQMGHLYGHVADELATPSSAILDIERKVTTLTRSGELPVDNFGVPLAGSLIPWIDKQLDNGQSREEWKGQAETNKILNTSSVIPVDGLCVRVGALRCHSQAFTIKLKKDVSIPTVEELLAAHNPWAKVVPNDREITMRELTPAAVTGTLTTPVGRLRKLNMGPEFLSAFTVGDQLLWGAAEPLRRMLRQLA”, the “soluble on expression in E. coli” value was “soluble”. As for “MKPDSNGVYAYDMKISKKLTMAYKNDNPAKHATPVDYDYKTQTWSKREPNQLMDCFQNYSFNHISDPGDANRMEDVLVVDGLHKRVISINGDMPGAPVVVPYMSEVWIRVSNQILMDSMTIHVHGIDKHGMWYMDGVAFVQQCPIQSTNKFEYRFIADNKGTHWYHGHMQTDRGDGIAGGFIVVDQNDTSVPTLDDRKRIVPSREYFFLLQDWATKVGEEAWMQLEDKTMKWMYGYDDFTKCWEPTRTSDGGNVGGAVPISAILLNDKGWYDHDIIKSQPFNLPLERFQIKPNEDILFRIVNGGVAQELMLYVEGHPMTVVAADGDEVVPMKVDRLIVFPGERYDILIKGLATPTKKSYRIQVETVQKYFFDWKEIPIVYGFGYIEYETDGLPEDKTTPNLMHPECTQNKKCTVLNCPFQEWMAQPNFTCISYDKLENPNPEKIEAEILQATQFNGGFEEHFINMHHDSQMDQFLFQFPWGIPYYHDGDMETISTSCSQTACANNSMSDLDTTCRCFYHLEHKLNNIVQITLYNMGLGGAMGTGYAHPFHLHGHHFYVMKVGWPSYNGSGFIDQMNQDIDCPGRDVSCNGKKWRNKDWLGGALEAMNTKNPTKRDTITLPVGGYITIRFRAVNPGWWFAHCHLELHLMGGTGYAYKVGDQNQIYMPPDNFPHDCGVFKVDKLPELRLPTQKSSNIPYTFIAVCLVLIIDRIFH”, the “soluble on expression in E. coli” value is “not soluble”. For “MKPFCTVMANGEDITRTLMDYVLSIEITDEAEDKSDRITIELDDRARECDNGFLDIPLIGTIISVTLGYEGGKNRDMGAYLIDEISVSSPPQSLSVTGRAASMNTSYRTPKSQSYHQQTLGNIIQEIAERNGYTPKVDPALAKIVVRHIDQTSESDMAFATRLAEDYDAVAKPVDGKLVLAKRGEGKAITGETLPVVVIHEKLCSSWDFKYSARDEAGAANGLATEAGDDQKAAADAREPEEVEEGEDVIHMDESDAPNLPKAETEAKTPENQEQDEEKKGGVLASYHDIRTGEKKEVKVGKAPFHELKYTYHNQSEAVAAIAAYRNKSSRGKSSFSCDIGGDPFVQAEAKLVQEPPFRPYIPAEWRIKSVKHKLDKTGGYTTKIDCELFDETQEDAAGNVANTTPDKDDTLDPNAPPNACDEGEGVIHMDEEDR”, the “soluble on expression in E. coli” value is reported as “not soluble”. Consider “MKPLLDVLMILDAIEKEGSFAAASAKLYKTPSALSYTVHKLESDLNIQLLDRSGHRAKFTRTGKMLLEKGREVLHTVRELEKQAIKLHEGWENELVIGVDDTFPFSLLAPLIEAFYQHHSVTRLKFINGVLGGSWDALTQGRADIIVGAMHEPPSSSEFGFSRLGDLEQVFAVAPHHPLAQEEEPLNRRIIKRYRAIVVGDTAQAGASTASQLLDEQEAITVFDFKTKLELQISGLGCGYLPRYLAQRFLDSGALIEKKVVAQTLFEPVWIGWNEQTAGLASGWWRDEILANSAIAGVYAKSDDGKSAIQRKIIMTSLSFSCHFPPI”, for which the “soluble on expression in E. coli” value is “not soluble”.

The record behind these values is the DeepSol protein solubility set.
